The values below come from US20060045883A1, “Anti-cancer vaccines” (priority 2004, published 2006).

Experiment [1] concerns the target HLA-A2.1 (HLA-A*0201) on the surface of T2 cells (human). In words: peptide-binding assay, stabilisation of HLA-A2 on the surface of T2 cells, fluorescence intensity relative to PR1.
Experiment [2] deals with HLA-A2.1 heavy chain with I125-labeled beta2-microglobulin (heterotrimer dissociation assay) (human). Kind of experiment: dissociation of I125-labeled beta2-microglobulin from the heavy chain/peptide/beta2-microglobulin complex, HPLC gel filtration. Background: SEC sorts molecules by how far they enter the pores of the column.

In turn, “CCNE1144-152 (cyclin E1 derived nonameric peptide) (from UniProt P24864 144-152)” came in with an FI CCNE1144-152/FI PR1 in experiment [1] of 1.01.
The substance “HTLV-1 Tax peptide (aa 11-19) (from UniProt P03409 11-19) (peptide; other documents disagree on this pair)” showed a T1/2 in experiment [2] of 133 h.
